Legend:
mouse eyes [1] = assay: Intracameral injection of ANGPTL7 protein in mice, IOP measured over time; type: in vivo
Description: (§1) Isoflurane anesthetized IOPs were measured as previously described. For IOP measurements, mice were anesthetized before IOP was measured in both eyes using a TonoLab rebound tonometer (Colonial Medical Supply, Franconia, N H). IOP measurements for both eyes were completed in 3-5 minutes. IOP in each eye was measured before start of Angptl7 injections and every day afterwards for six days.
A 33-gauge needle with a glass microsyringe (5-4 volume) (Hamilton Company) was used. Before and during injection, mice were anesthetized with isoflurane (2.5%) containing oxygen (0.8 L/min). For topical anesthesia, both eyes received one to two drops of 0.5% proparacaine HCl (Akorn, Inc.). Each eye was proptosed and the needle was inserted through the cornea just above the limbal region and into the anterior chamber at an angle parallel to the cornea, taking care to avoid touching the iris, anterior lens capsule epithelium, or corneal endothelium. Up to 1 μL of ANGPTL7 protein (catalog #4960-AN-025; R&D Systems, Minneapolis, MN) or PBS was injected slowly (over a 30-second period). The needle was then withdrawn. The procedure was performed on both eyes of each animal. Only one injection was administered at day 0.

mouse eyes [2] = assay: Intravitreal injection of ANGPTL7 protein in mice, IOP measured over time; type: in vivo
Description: as §1
A 33-gauge needle with a glass microsyringe (5-4 volume; Hamilton Company) was used. The eye was proptosed, and the needle was inserted through the equatorial sclera and inserted into the vitreous chamber at an angle of approximately 45 degrees, taking care to avoid touching the posterior part of the lens or the retina. ANGPTL7 protein (catalog #4960-AN-025; R&D Systems, Minneapolis, MN) or PBS (1 μL) was injected into the vitreous over the course of 1 minute. The needle was then left in place for a further 45 seconds (to facilitate mixing), before being rapidly withdrawn. Only one injection was administered at day 0.

B1: ANGPTL7 protein: ANGPTL7 protein (catalog #4960-AN-025; R&D Systems), murine Angptl7 protein injected into mouse eyes (protein, UniProt Q8R1Q3 22-337, looked up)
Angiopoietin-related protein 7: QKPHKRKTQLKAAGCCEEMRELKAQVANLSSLLGELSRKQESDWVSVVMQVMELESSSKHMESRLSTAESKYSEMNNQIDIMQLQAAQTVTQTSADAIYDCSSLYQKNYRISGVYKLPPDEFLGSPELEVFCDMETSGGGWTIIQRRKSGLVSFYQDWRQYKQGFGSIRGDFWLGNEHIHRLTRQPSRLRVELEDWEGNARYAEYSYFALGNELNSYRLFLGNYSGNVGKDALLYHNNTVFSTKDKDNDNCLDKCAQLRKGGYWYNCCTDSNLNGVYYRLGEHRKHMDGISWYGWHGANYSLKRVEMKIRPEAFKP
elevation of IOP (mouse eyes [1]; mice, single intracameral injection at day 0, after an initial drop, starting on day 3 until end of experiment on day 7): 2-5 mmHg
IOP in Angptl7-treated eyes compared to control eyes (mouse eyes [1]; mouse eyes, intracameral route, after an initial drop (FIG. 6B)): elevated
elevation of IOP (mouse eyes [2]; mice, single intravitreal injection at day 0, after an initial drop, starting on day 4 until end of experiment on day 7): 4-5 mmHg
elevation of IOP compared to baseline (mouse eyes [2]; mice, single intravitreal injection at day 0, starting on day 4 until day 7): 22-25%
IOP in Angptl7-treated eyes compared to control eyes (mouse eyes [2]; mouse eyes, intravitreal route, after an initial drop (FIG. 6A)): elevated
